Consider 26 molecules from patent publication US20240238445A1, “INHIBITORS AND USES THEREOF” (NEURACLE SCIENCE CO., LTD., priority 2021, published 2024).

Experiment [1] has as its target binding of FAM19A5 protein to LRRC4B (amino acids 453-576)-hFc (Homo sapiens, UniProt Q7Z5A7). The experiment can be described thus: Competitive inhibition assay, plate coated with LRRC4B (amino acids 453-576)-hFc, peptides at 20 nM. From the text:
(§1) Next, to assess whether polypeptides comprising the binding domains of LRRC4 or LRRC4C proteins can have similar inhibitory effects on LRRC4B protein binding, the following synthetic peptides were constructed: (1) FBC4-23 (contains the binding domain of the LRRC4 protein, i.e., YSFFTTVTVETTE); and (2) FBC4C-23 (contains the binding domain of the LRRC4C protein, i.e., FSYFSTVTVETME). Then, the ability of the peptides to inhibit the binding of LRRC4 protein family members to FAM19A5 protein was assessed using a competitive inhibition assay. Briefly, plates were coated with 100 nM of either LRRC4B protein fragment #1 (amino acids 36-576 of SEQ ID NO: 2; SEQ ID NO: 5) or LRRC4B protein fragment #2 (amino acids 453-576 of SEQ ID NO: 2; SEQ ID NO: 7). Then, recombinant FAM19A5 protein (5 ng/ml for plates coated with LRRC4B fragment #1; and 1 ng/mL for plates coated with LRRC4B fragment #2) was added to the plates in combination with 20 nM of the FBC4-23, FBC4C-23, and FB-20 peptides. The plates were incubated at 37° C. and then, the amount of FAM19A5 protein bound to the coated LRRC4B protein fragments was assessed using HRP-conjugated anti-FAM19A5 (1-65) antibody.
(§2) Next, to determine the minimal sequence required to inhibit the interaction of FAM19A5 and members of the LRRC4 protein family, ten FB-20 peptide variants were constructed by serially deleting one or more amino acids from the N-terminus or C-terminus of the FB-20 peptide. Then, a competitive inhibition assay was used to assess the ability of the different FB-20 peptide variants to inhibit the interaction between FAM19A5 and LRRC4B protein. Again, plates were coated with 100 nM of either LRRC4B protein fragment #1 (amino acids 36-576 of SEQ ID NO: 2; SEQ ID NO: 5) or LRRC4B protein fragment #2 (amino acids 453-576 of SEQ ID NO: 2; SEQ ID NO: 7). Then, recombinant FAM19A5 protein (5 ng/ml for plates coated with LRRC4B fragment #1; and 1 ng/mL for plates coated with LRRC4B fragment #2) was added to the plates in combination with 20 nM of the different peptides described above. After incubating the plates at 37° C., the amount of FAM19A5 protein bound to the coated LRRC4B protein fragments was assessed using HRP-conjugated anti-FAM19A5 (1-65) antibody.
To identify the critical amino acid residues, multiple FB-20 peptide mutants were constructed, in which the individual residues of the core binding domain (i.e., YTYFTTVTVETLE; SEQ ID NO: 15) were substituted with alanine (A) or asparagine (N). Then, the ability of these FB-20 peptide mutants to inhibit the interaction between LRRC4B and FAM19A5 proteins was assessed, as described in Examples 3 and 4.

Experiment [2] has as its target binding of FAM19A5 protein to full-length ectodomain of the LRRC4B protein (amino acids 36-576 of SEQ ID NO: 2) (Homo sapiens, UniProt Q7Z5A7). The experiment can be described thus: Competitive inhibition assay, plate coated with full-length ectodomain of LRRC4B (amino acids 36-576). As to conditions: for inhibition of interaction between FAM19A5 and the coated LRRC4B protein fragments (in words): statement covers both coats, LRRC4B (36-576) and LRRC4B (453-576). On the procedure:
Next, to further assess the role that the binding domain of the LRRC4B protein has on the interaction between FAM19A5 protein and members of the LRRC4 protein family, a competitive inhibition assay was used to determine whether different LRRC4B deletion constructs from Example 2 could inhibit the binding of FAM19A5 to the full-length ectodomain of the LRRC4B protein (i.e., amino acids 36-576 of SEQ ID NO: 2; SEQ ID NO: 5). Briefly, 100 nM of the full-length ectodomain of the LRRC4B protein was used to coat a plate, and then recombinant FAM19A5 protein (5 ng/mL) was added to the plate in combination with the following LRRC4B deletion constructs (increasing concentrations): (1) LRRC4B (453-576) (i.e., construct #11 in Table 6); (2) LRRC4B (453-576) mutant (comprises alanine substitutions at positions 488 and 489 of SEQ ID NO: 2; SEQ ID NO: 16); (3) LRRC4B (484-576) (i.e., construct #12 in Table 6); (4) LRRC4B (482-576); (5) LRRC4B (482-497); and (6) LRRC4B (498-576). The plates were incubated at 37° C., and then, the amount of FAM19A5 bound to the coated LRRC4B ectodomain protein was measured using HRP-conjugated anti-FAM19A5 (1-65) antibody.
As described in Example 3, there appeared to be much similarity in the binding domains of the different members of the LRRC4 family. […] Then, recombinant FAM19A5 protein (5 ng/mL) was added in combination with one of the following: (i) LRRC4B (484-576) protein fragment, (ii) LRRC4B (453-576, AA) protein fragment, and (iii) synthetic FB-20 peptide. The plates were incubated at 37° C., and then, the amount of FAM19A5 protein bound to the coated LRRC4, LRRC4B, or LRRC4C proteins was measured using anti-FAM19A5 (1-65) antibody.
as §1
as §2, with “antibody. […]” for “antibody.”

In experiment [3] the target is T1, FAM19A5 protein (Homo sapiens, UniProt Q7Z5A7). The experiment can be described thus: competitive inhibition ELISA; competitor: coated LRRC4B(36-576)-hFc. Background: An ELISA detects its analyte on a solid surface through an enzyme-linked reagent.
The target in experiment [4] is T1, FAM19A5 protein. The experiment can be described thus: competitive inhibition ELISA; competitor: coated LRRC4B(453-576)-hFc.
The mark [5] stands for this setting: Table 10, alanine/asparagine mutants.
Where [6] appears, read: Table 9, deletion variants, 20 nM peptide, FAM19A5 1 ng/mL.
[7] abbreviates: Table 9, deletion variants, 20 nM peptide, FAM19A5 5 ng/ml.

Sequence of binding of FAM19A5 protein to full-length ectodomain of the LRRC4B protein (amino acids 36-576 of SEQ ID NO: 2) (Q7Z5A7 44-132): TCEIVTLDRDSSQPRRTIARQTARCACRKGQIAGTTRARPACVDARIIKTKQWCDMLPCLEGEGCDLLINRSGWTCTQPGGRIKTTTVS
Sequence of binding of FAM19A5 protein to LRRC4B (amino acids 453-576)-hFc (Q7Z5A7 44-132): as above

As for GYTYFTTVTVNTLETQPGEE [FB-20[N10]], the “Inhibition rate (%) LRRC4B (amino acids 453-576)-hFc” value in experiment [1] (setting [5]) is 10.8%. Also, in experiment [2] (setting [5]), the “Inhibition rate (%) LRRC4B (amino acids 36-576)-hFc” value was determined as 27.0%.

In the case of NYSFFTTVTVETTEISPEDTTRK [FBC4-23], the “Inhibition rate (%) LRRC4B (amino acids 453-576)-hFc” value in experiment [1] (Table 8, 20 nM peptide, FAM19A5 1 ng/mL) is listed as 40.4%. In experiment [2] (20 nM peptide), the “inhibition of interaction between FAM19A5 and the coated LRRC4B protein fragments (in words)” value (from here on “inhibition … (in words)”) is listed as “significantly decreased the interaction”. Also, the “Inhibition rate (%) LRRC4B (amino acids 36-576)-hFc” value in experiment [2] (Table 8, 20 nM peptide, FAM19A5 5 ng/ml) turned out to be 64.1%.

Regarding KNYTYFTTVTVENKETQ [FB-m10dC], in experiment [1] (setting [6]), the “Inhibition rate (%) LRRC4B (amino acids 453-576)-hFc” value is 21.9%. Besides, the “Inhibition rate (%) LRRC4B (amino acids 36-576)-hFc” value in experiment [2] (setting [7]) is given as 62.0%.

Regarding GYNYFTTVTVETLETQPGEE [FB-20[N2]], in experiment [1] (setting [5]), the “Inhibition rate (%) LRRC4B (amino acids 453-576)-hFc” value was −2.0%. Also, the “Inhibition rate (%) LRRC4B (amino acids 36-576)-hFc” value in experiment [2] (setting [5]) was −0.7%.

With GYTYFTTVNVETLETQPGEE [FB-20[N8]], the “Inhibition rate (%) LRRC4B (amino acids 453-576)-hFc” value in experiment [1] (setting [5]) is −2.4%. The “Inhibition rate (%) LRRC4B (amino acids 36-576)-hFc” value in experiment [2] (setting [5]) is 2.9%.

Turning to KNFTTVTVETNKETQ [FB-m8dN], in experiment [1] (setting [6]), the “Inhibition rate (%) LRRC4B (amino acids 453-576)-hFc” value is −1.1%. Further, in experiment [2] (20 nM peptide), the “inhibition … (in words)” value is reported as “failed to significantly inhibit”. In experiment [2] (setting [7]), the “Inhibition rate (%) LRRC4B (amino acids 36-576)-hFc” value came to 3.3%.

In the case of GYTYNTTVTVETLETQPGEE [FB-20[N4]], the “Inhibition rate (%) LRRC4B (amino acids 453-576)-hFc” value in experiment [1] (setting [5]) is 2.5%. The “Inhibition rate (%) LRRC4B (amino acids 36-576)-hFc” value in experiment [2] (setting [5]) is −1.3%.

KNTYFTTVTVETNKETQ [FB-m10dN]: the “Inhibition rate (%) LRRC4B (amino acids 453-576)-hFc” value in experiment [1] (setting [6]) amounted to 0.0%. Besides, in experiment [2] (20 nM peptide), the “inhibition … (in words)” value is recorded as “failed to significantly inhibit”. Also, in experiment [2] (setting [7]), the “Inhibition rate (%) LRRC4B (amino acids 36-576)-hFc” value came to 7.7%.

As for GYTYFATVTVETLETQPGEE [FB-20[A5]], in experiment [1] (setting [5]), the “Inhibition rate (%) LRRC4B (amino acids 453-576)-hFc” value came to 22.2%. Further, the “Inhibition rate (%) LRRC4B (amino acids 36-576)-hFc” value in experiment [2] (setting [5]) was found to be 53.4%.

Take GYTYFTTVTVETLATQPGEE [FB-20[A13]]: the “Inhibition rate (%) LRRC4B (amino acids 453-576)-hFc” value in experiment [1] (setting [5]) was determined as 27.2%. For the same molecule, the “Inhibition rate (%) LRRC4B (amino acids 36-576)-hFc” value in experiment [2] (setting [5]) is on record as 51.4%.

For GYTYFTAVTVETLETQPGEE [FB-20[A6]], the “Inhibition rate (%) LRRC4B (amino acids 453-576)-hFc” value in experiment [1] (setting [5]) came to 11.0%. In addition, in experiment [2] (setting [5]), the “Inhibition rate (%) LRRC4B (amino acids 36-576)-hFc” value was 17.9%.

In the case of GYTAFTTVTVETLETQPGEE [FB-20[A3]], the “Inhibition rate (%) LRRC4B (amino acids 453-576)-hFc” value in experiment [1] (setting [5]) was 0.0%. The “Inhibition rate (%) LRRC4B (amino acids 36-576)-hFc” value in experiment [2] (setting [5]) was found to be 5.9%.

B1: FB-20[N8] (peptide)
peptide: GYTYFTTVNVETLETQPGEE
Take B1: the results for the Inhibition rate (%) with FAM19A5 protein [3] and with FAM19A5 protein [4] were 2.9% and -2.4%, respectively.

B2: FB-20[N7] (peptide)
peptide: GYTYFTTNTVETLETQPGEE
With B2, the values for the Inhibition rate (%) with FAM19A5 protein [3] and in the experiment with FAM19A5 protein [4] were 24.5% and 8.3%, respectively.

B3: FB-20[N1] (peptide)
peptide: GNTYFTTVTVETLETQPGEE
For the molecule B3, the figures for the Inhibition rate (%) with FAM19A5 protein [3] and in the experiment with FAM19A5 protein [4] were 11.9% and 3.1%, respectively.

B4: FB-20[N5] (peptide)
peptide: GYTYFNTVTVETLETQPGEE
With B4, the figures for the Inhibition rate (%) with FAM19A5 protein [3] and with FAM19A5 protein [4] were 56.1% and 30.5%, respectively.

B5: FB-20[N2] (peptide)
peptide: GYNYFTTVTVETLETQPGEE
Turning to B5, the results for the Inhibition rate (%) with FAM19A5 protein [3] and with FAM19A5 protein [4] were -0.7% and -2%, respectively.

B6: FB-20[A3] (peptide)
peptide: GYTAFTTVTVETLETQPGEE
As to B6, the Inhibition rate (%) turned out to be 5.9% with FAM19A5 protein [3] and 0% with FAM19A5 protein [4].

B7: FB-20[N11] (peptide)
peptide: GYTYFTTVTVENLETQPGEE
Regarding B7, the figures for the Inhibition rate (%) in the experiment with FAM19A5 protein [3] and with FAM19A5 protein [4] were 74.1% and 55.6%, respectively.

B8: FB-20[N6] (peptide)
peptide: GYTYFTNVTVETLETQPGEE
On to B8, for which the figures for the Inhibition rate (%) in the experiment with FAM19A5 protein [3] and with FAM19A5 protein [4] were -11.4% and -0.4%, respectively.

B9: FB-20[N3] (peptide)
peptide: GYTNFTTVTVETLETQPGEE
B9: the Inhibition rate (%) with FAM19A5 protein [3] is -5%; with FAM19A5 protein [4] it was 4%.

B10: FB-20[N10] (peptide)
peptide: GYTYFTTVTVNTLETQPGEE
As for B10, the values for the Inhibition rate (%) in the experiment with FAM19A5 protein [3] and in the experiment with FAM19A5 protein [4] were 27% and 10.8%, respectively.

B11: FB-20[N4] (peptide)
peptide: GYTYNTTVTVETLETQPGEE
For B11, the Inhibition rate (%) with FAM19A5 protein [3] is -1.3%; with FAM19A5 protein [4], 2.5%.

B12: FB-20[A1] (peptide)
peptide: GATYFTTVTVETLETQPGEE
With B12, the Inhibition rate (%) in the experiment with FAM19A5 protein [3] came to 17.2%; with FAM19A5 protein [4], 3.6%.

B13: FB-20[A2] (peptide)
peptide: GYAYFTTVTVETLETQPGEE
For B13, the values for the Inhibition rate (%) with FAM19A5 protein [3] and with FAM19A5 protein [4] were 1% and -0.4%, respectively.

B14: FB-20[N9] (peptide)
peptide: GYTYFTTVTNETLETQPGEE
In the case of B14, the Inhibition rate (%) with FAM19A5 protein [3] was 17.5%; with FAM19A5 protein [4], 6.5%.
